Data: US20030124508A1, “Method for testing the hormonal effect of substances” (priority 2001, published 2003)

Target: T1, androgen receptor (Homo sapiens, UniProt P10275)
T1 construct: expressed in transfected cells; host or cells: SH-SY5Y
T1 sequence (P10275 1-920): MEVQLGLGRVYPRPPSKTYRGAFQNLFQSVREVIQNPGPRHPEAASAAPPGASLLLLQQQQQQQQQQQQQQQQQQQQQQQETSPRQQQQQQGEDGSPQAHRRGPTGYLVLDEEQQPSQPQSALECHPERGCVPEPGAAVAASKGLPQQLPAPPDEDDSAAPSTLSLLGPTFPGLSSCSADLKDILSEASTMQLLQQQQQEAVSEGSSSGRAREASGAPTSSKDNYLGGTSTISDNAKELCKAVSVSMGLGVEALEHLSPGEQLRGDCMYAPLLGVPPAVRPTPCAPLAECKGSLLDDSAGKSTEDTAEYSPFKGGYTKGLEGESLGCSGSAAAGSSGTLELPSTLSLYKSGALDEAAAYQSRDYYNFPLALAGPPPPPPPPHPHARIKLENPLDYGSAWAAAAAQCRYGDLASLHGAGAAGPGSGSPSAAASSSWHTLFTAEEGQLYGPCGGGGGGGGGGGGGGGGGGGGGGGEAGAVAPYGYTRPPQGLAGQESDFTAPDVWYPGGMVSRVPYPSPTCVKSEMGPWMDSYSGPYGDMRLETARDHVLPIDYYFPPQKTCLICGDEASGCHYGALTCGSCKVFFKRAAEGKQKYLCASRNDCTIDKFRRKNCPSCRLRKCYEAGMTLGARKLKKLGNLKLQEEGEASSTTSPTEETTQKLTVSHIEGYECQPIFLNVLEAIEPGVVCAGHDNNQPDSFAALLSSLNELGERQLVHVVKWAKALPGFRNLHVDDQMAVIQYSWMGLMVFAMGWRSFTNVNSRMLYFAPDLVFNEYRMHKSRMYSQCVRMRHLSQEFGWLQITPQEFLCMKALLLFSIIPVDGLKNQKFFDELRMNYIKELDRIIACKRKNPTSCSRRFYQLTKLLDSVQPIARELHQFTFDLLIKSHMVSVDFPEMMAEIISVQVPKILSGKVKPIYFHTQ
Test: Co-activation of the androgen receptor signal (MMTV-luciferase reporter) in transfected SH-SY5Y cells
Type: cell-based
Conditions: SH-SY5Y cells transfected with 1 μg co-activator in CMX, MMTV-luciferase and pSG5AR; DHT for 24 hours; especially at low androgen concentrations of 10^−12-10^−10 M; vs CMX control plasmid
Experimental: The ARAP11-cDNA which codes for the ARAP11 fragment of amino acids 813-1,390, obtained by PCR, was cloned in the standard manner into the vector CMX and transfected with pSG5-AR and MMTV-luciferase in SH-SY5Y cells, also in the standard manner.
After 24 hours, the cells were treated with […] (DHT) as the androgen in the indicated concentrations. The transfected cells were harvested after another 24 hours, and the activity of the reporter gene luciferase was measured. In addition, the total quantity of cell protein was determined for the sake of normalization. One experiment and four measurements were conducted per transfection batch and substance concentration. The error range is given as the SD. The values of the corresponding controls without DHT were subtracted from all signals. The activity is expressed in relative units.

B1: ARAP11-cDNA: cDNA in vector CMX coding for amino acids 813-1,390 of ARAP11, co-activator for the human androgen receptor (protein)
chain: VIHALEKFTVYTLDIPVLFGVSTTSPEETCAQVIREAKRTAPSIVYVPHIHVWWEIVGPTLKATFTTLLQNIPSFAPVLLLATSDKPHSALPEEVQELFIRDYGEIFNVQLPDKEERTKFFEDLILKQAAKPPISKKKAVLQALEVLPVAPPPEPRSLTAEEVKRLEEQEEDTFRELRIFLRNVTHRLAIDKRFRVFTKPVDPDEVPDYVTVIKQPMDLSSVISKIDLHKYLTVKDYLRDIDLICSNALEYNPDRDPGDRLIRHRACALRDTAYAIIKEELDEDFEQLCEEIQESRKKRGCSSSKYAPSYYHVMPKQNSTLVGDKRSDPEQNEKLKTPSTPVACSTPAQLKRKIRKKSNWYLGTIKKRRKISQAKDDSQNAIDHKIESDTEETQDTSVDHNETGNTGESSVEENEKQQNASESKLELRNNSNTCNIENELEDSRKTTACTELRDKIACNGDASSSQIIHISDENEGKEMCVLRMTRARRSQVEQQQLITVEKALAILSQPTPSLVVDHERLKNLLKTVVKKSQNYNIFQLENLYAVISQCIYRHRKDHDKTSLIQKMEQEVENFSCSR
modifications: fetalbrain; ARAP11 fragment from amino acid residues 813- 1390
co-activation of the AR signal activity (luciferase reporter activity): strong co-activation of the AR signal activity
